To fix the notation:
B1: CPEB3 Ribozyme (parent)
chain: GGGGGCCACAGCAGAAGCGUUCACGUCGCGGCCCCUGUCAGAUUCUGGUGAAUCUGCGAAUUCUGCUGU

Variants of B1 are the subject of the series. Briefly: self-cleavage, relative activity (ratio to wild type); higher = more cleavage; co-transcriptional.
Turning to GGGGGCUACAGCAGAGGCGUUCACGUCGCGGCCCCUGUCAGAUUCUGGUGAAUCUGCGAAUUCUGCUGU [C7U A16G], the self-cleavage was 0.908.

With GGGGGCGACAGCAGAAGCGUUCACGUCGCGGCCCCUGUCAGAUUCUGGUGAAUCUUCGAAUUCUGCUGU [C7G G56U], the self-cleavage was 0.177.

In the case of GGGGGCUACAGCAGAAGCGUUCACGUCGUGGCCCCUGUCAGAUUCUGGUGAAUCUGCGAAUUCUGCUGU [C7U C29U], the self-cleavage was determined as 0.505.

As to GGGGGCUACAGCAGAAGCGUUCACGUCGGGGCCCCUGUCAGAUUCUGGUGAAUCUGCGAAUUCUGCUGU [C7U C29G], the self-cleavage came to 0.314.

On to GGGGGCUACAGCAGAAGCGUUCACGUCGAGGCCCCUGUCAGAUUCUGGUGAAUCUGCGAAUUCUGCUGU [C7U C29A], for which the self-cleavage was found to be 0.413. Consider GGGGGCGACAGCAGAAGCGUUCACGUCGCGGCCCCUGUCAGAUUCUGGUGAAUCUGCGAAUACUGCUGU [C7G U62A], for which the self-cleavage came out at 0.18.

With GGGGGCUACAGCAGAAGGGUUCACGUCGCGGCCCCUGUCAGAUUCUGGUGAAUCUGCGAAUUCUGCUGU [C7U C18G], the self-cleavage worked out at 0.104. To GGGGGCGACAGCAGAAGCGUUCACGUCGCGGCCCCUGUCAGACUCUGGUGAAUCUGCGAAUUCUGCUGU [C7G U43C] belongs 0.231. Take GGGGGCUACAGCAGAAGCGUUCACGUCGCGGCCGCUGUCAGAUUCUGGUGAAUCUGCGAAUUCUGCUGU [C7U C34G]: the self-cleavage worked out at 0.287. Turning to GGGGGCUACAGCAGAAGCGUUCACGUCGCGGCCUCUGUCAGAUUCUGGUGAAUCUGCGAAUUCUGCUGU [C7U C34U], the self-cleavage was determined as 0.969.

Consider GGGGGCUACAGCUGAAGCGUUCACGUCGCGGCCCCUGUCAGAUUCUGGUGAAUCUGCGAAUUCUGCUGU [C7U A13U], for which the self-cleavage came out at 0.693. Take GGGGGCUACAGCAGAAGCGUUCACGUCGCGGCCCAUGUCAGAUUCUGGUGAAUCUGCGAAUUCUGCUGU [C7U C35A]: the self-cleavage was 0.194.

Consider GGGGGCGACAGCAGAAGCGUUCACGUCGCGGCCCCUGUCAGAUUCUGGUGAAUCUGCGAAUUCUGCUGA [C7G U69A], for which the self-cleavage turned out to be 0.728. Take GGGGGCGACAGCAGAAGCGUUCACGUCGCGGCCCCUGCCAGAUUCUGGUGAAUCUGCGAAUUCUGCUGU [C7G U38C]: the self-cleavage was 0.174. As for GGGGGCGACAGCAGAAGCGUUCACGUCGCGGCCCCUGGCAGAUUCUGGUGAAUCUGCGAAUUCUGCUGU [C7G U38G], the self-cleavage came out at 0.068.

For GGGGGCGACAGCAGAAGCGUUCACGUCGCGGCCCCUGACAGAUUCUGGUGAAUCUGCGAAUUCUGCUGU [C7G U38A], the self-cleavage came to 0.264.

Take GGGGGCGACAGCAGAAGCGUUCACGUCGCGGCCCCUGUCAGAUUCUGGUGAAUCUGCGAAUUCUGCGGU [C7G U67G]: the self-cleavage came out at 0.75.

With GGGGGCGACAGCAGAAGCGUUCACGUCGCGGCCCCUGUCAGAUUCUGCUGAAUCUGCGAAUUCUGCUGU [C7G G48C], the self-cleavage is 0.502. The same measure for GGGGGCUACAGCAGAAGCGUUCAGGUCGCGGCCCCUGUCAGAUUCUGGUGAAUCUGCGAAUUCUGCUGU [C7U C24G]: 0.225. To GGGGGCUACAGCAGAAGCGUUCAUGUCGCGGCCCCUGUCAGAUUCUGGUGAAUCUGCGAAUUCUGCUGU [C7U C24U] belongs 0.676; to GGGGGCGACAGCAGAAGCGUUCACGUCGCGGCCCCUGUCAGAUUCUGGUGAAUCUGCGAAUUCUGCUCU [C7G G68C], 0.815. Consider GGGGGCUACAGCAGAAGCGUUCACGUCGCGGCCCCUGUCAGAUUCUGGUGAUUCUGCGAAUUCUGCUGU [C7U A52U], for which the self-cleavage was determined as 0.91. Turning to GGGGGCUACAGCAGAAGCGUUCACGUCGCGGCCCCUGUCAGAUUCUGGUGAGUCUGCGAAUUCUGCUGU [C7U A52G], the self-cleavage stood at 0.957. Turning to GGGGGCGACAGCAGAAGCGUUCACGGCGCGGCCCCUGUCAGAUUCUGGUGAAUCUGCGAAUUCUGCUGU [C7G U26G], the self-cleavage was determined as 0.233. Regarding GGGGGCGACAGCAGAAGCGUUCACGACGCGGCCCCUGUCAGAUUCUGGUGAAUCUGCGAAUUCUGCUGU [C7G U26A], the self-cleavage was 0.103.

As to GGGGGCUACAGCAGAAGCGUUCACGUCGCGGUCCCUGUCAGAUUCUGGUGAAUCUGCGAAUUCUGCUGU [C7U C32U], the self-cleavage came out at 0.984. On to GGGGGCGACAGCAGAAGCGUUCACGUCGCGGCCCCUGUCAGAUUCGGGUGAAUCUGCGAAUUCUGCUGU [C7G U46G], for which the self-cleavage was 0.455. As to GGGGGCUACAGCAGAAGCGUUCACGUCGCGGCCCCUGUCAGGUUCUGGUGAAUCUGCGAAUUCUGCUGU [C7U A42G], the self-cleavage worked out at 0.908. For the variant GGGGGCUACAGCAGAAGCGUUCACGUCGCGGCCCCUGUCAGAUUCUGGUGAAUCUGCGACUUCUGCUGU [C7U A60C], the self-cleavage amounted to 0.231.

Consider GGGGGCUACAGCAGAAGCGUUUACGUCGCGGCCCCUGUCAGAUUCUGGUGAAUCUGCGAAUUCUGCUGU [C7U C22U], for which the self-cleavage worked out at 0.155. To GGGGGCGACAGCAGAAGCGUUCACGUCGCGGCCCCAGUCAGAUUCUGGUGAAUCUGCGAAUUCUGCUGU [C7G U36A] belongs 0.0233. To GGGGGCGACAGCAGAAGCGUUCACGUCGCGGCCCCUGUCAGAUUCUGGUGAAUCUGCAAAUUCUGCUGU [C7G G58A] belongs 0.281; to GGGGGCGACAGCAGAAGCGUACACGUCGCGGCCCCUGUCAGAUUCUGGUGAAUCUGCGAAUUCUGCUGU [C7G U21A], 0.395; to GGGGGCGACAGCAGAAGCGUGCACGUCGCGGCCCCUGUCAGAUUCUGGUGAAUCUGCGAAUUCUGCUGU [C7G U21G], 0.119.

Consider GGGGGCGACAGCAGAAGCGUUCACGUCGCGGCCCCUGUCAGAUUCUUGUGAAUCUGCGAAUUCUGCUGU [C7G G47U], for which the self-cleavage stood at 0.636. GGGGGCUACAGGAGAAGCGUUCACGUCGCGGCCCCUGUCAGAUUCUGGUGAAUCUGCGAAUUCUGCUGU [C7U C12G]: the self-cleavage came to 0.822. With GGGGGCUACAGUAGAAGCGUUCACGUCGCGGCCCCUGUCAGAUUCUGGUGAAUCUGCGAAUUCUGCUGU [C7U C12U], the self-cleavage came to 0.94. For GGGGGCGACAGCAGAAGCGUUCACGUCGCGGCCCCUGUCAGAUUCUGGCGAAUCUGCGAAUUCUGCUGU [C7G U49C], the self-cleavage came to 0.491. For the variant GGGGGCGACAGCAGAAGCGUUCACGUCGCGGCCCCUGUCAGAUUCUGGAGAAUCUGCGAAUUCUGCUGU [C7G U49A], the self-cleavage came to 0.444.
